Our source for the Kd and ΔTm*(Thermal shift) values is patent US20160245821A1.

Experiment [1] deals with WD Repeat Containing Protein 5 (WDR5) (UniProt P61964). The experiment is described as follows: ITC. Background: ITC needs no label: the signal is the heat of the interaction.
Experiment [2] shares this target. Kind of experiment: thermal shift.
Experiment [3] has the same target. Kind of experiment: fluorescent polarization (FP) assay.

Regarding “Peptide Substrate (WIN peptide, pentapeptide fragment of the WDR5 binding partner MLL1 protein)”, the Kd in experiment [1] and in experiment [3] was 1.3 µM throughout. Further, the ΔTm*(Thermal shift) in experiment [2] amounted to 2 ° C.

What is called Kd is the concentration at which binding is half-saturated. Low readings indicate a tighter complex, high ones a looser complex.
